# Test results reported in US20230192799A1 (BIOMARIN PHARMACEUTICAL, published 2023).
# Bridge positions count the residues as written; N and C are the ends. Ends that are not written are not given here.
# Target: natriuretic peptide receptor-B (NPR-B) on the cells of the cGMP stimulation assay of Example 2
# Experiment: cell-based or functional assay
row,Binder,"EC50, T0 (cGMP stimulation assay) [nM]"
1,Ac-PGQEHPNARRYRGANRRGLSRGCFGLKLDRIGSMSGLGC-NH2 (disulfide 23-39 (inferred)) [CNP-7],2.1
2,Ac-PGQEHPNARKYKGANKKGLSKGCFGLKLDRIGSMSGLGC-NH2 (disulfide 23-39 (inferred)) [CNP-5],3
3,PGQEHPNARKYKGANKKGLSKGCFGLKLDRIGSMSGLGC (disulfide 23-39 (inferred)) [Pro-Gly CNP-37],1.7
4,Ac-PGQEHPQARRYRGAQRRGLSRGCFGLKLDRIGSMSGLGC-OH (disulfide 23-39 (inferred)) [CNP-8],0.2
5,Ac-PGQEHPNARRYRGANRRGLSRGCFGLKLDRIGSMSGLGC-OH (disulfide 23-39 (inferred)) [CNP-6],0.4
6,Ac-PGQEHPQARRYRGAQRRGLSRGCFGLKLDRIGSMSGLGC-NH2 (disulfide 23-39 (inferred)) [CNP-9],0.9
